Test results taken from patent publication US20120269817A1 (Bayer, published 2012).
Residue numbers refer to the chain shown, from its start.

B1: TP-2G2 Fab (Fab, V domains shown)
VH: QVQLVESGGGLVQPGGSLRLSCAASGFTFSSYAMNWVRQAPGKGLEWVSAILSDGSSTSYADSVKGRFTISRDNSKNTLYLQMNSLRAEDTAVYYCARYPDWGWYTDVWGQGTLVTVSS
VL: DIELTQPPSVSVAPGQTARISCSGDNIRKFYVHWYQQKPGQAPVLVIYGTNKRPSGIPERFSGSNSGNTATLTISGTQAEDEADYYCQSYDSKFNTVFGGGTKLTVLG
notes: Human Fab from HuCal Gold, expressed in E. coli TG1
B2: TP-2G4 Fab (Fab, V domains shown)
VH: QVQLVESGGGLVQPGGSLRLSCAASGFTFSSYAMTWVRQAPGKGLEWVSNISYSGSNTYYADSVKGRFTISRDNSKNTLYLQMNSLRAEDTAVYYCARVGYYYGFDYWGQGTLVTVSS
VL: DIELTQPPSVSVAPGQTARISCSGDALRKHYVYWYQQKPGQAPVLVIYGDNNRPSGIPERFSGSNSGNTATLTISGTQAEDEADYYCQSYDKPYPILVFGGGTKLTVLG
notes: as for B1
B3: TP-3A2 Fab (Fab, V domains shown)
VH: QVQLVESGGGLVQPGGSLRLSCAASGFTFSNYYLSWVRQAPGKGLEWVSGISYNGSSTNYADSVKGRFTISRDNSKNTLYLQMNSLRAEDTAVYYCARMWRYSLGADSWGQGTLVTVSS
VL: DIELTQPPSVSVAPGQTARISCSGDNIGSRYAYWYQQKPGQAPVVVIYDDSDRPSGIPERFSGSNSGNTATLTISGTQAEDEADYYCAAYTFYARTVFGGGTKLTVLG
notes: as for B1
B4: TP-2B4 Fab (Fab, V domains shown)
VH: QVQLVESGGGLVQPGGSLRLSCAASGFTFSNYSMTWVRQAPGKGLEWVSGISYNGSNTYYADSVKGRFTISRDNSKNTLYLQMNSLRAEDTAVYYCARIYYMNLLAGWGQGTLVTVSS
VL: DIELTQPPSVSVAPGQTARISCSGDALGTYYAYWYQQKPGQAPVLVIYGDMNRPSGIPERFSGSNSGNTATLTISGTQAEDEADYYCQSYDAGVKPAVFGGGTKLTVLG
notes: as for B1
B5: TP-2D7 Fab (Fab, V domains shown)
VH: QVQLQQSGPGLVKPSQTLSLTCAISGDSVSSNSAAWGWIRQSPGRGLEWLGLIYYRSKWYNDYAVSVKSRITINPDTSKNQFSLQLNSVTPEDTAVYYCARFGDTNRNGTDVWGQGTLVTVSS
VL: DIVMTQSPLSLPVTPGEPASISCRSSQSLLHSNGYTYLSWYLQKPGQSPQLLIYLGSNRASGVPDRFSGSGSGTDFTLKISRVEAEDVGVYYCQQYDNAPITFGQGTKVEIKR
notes: as for B1
B6: TP-2A6 Fab (Fab, V domains shown)
VH: QVQLVESGGGLVQPGGSLRLSCAASGFTFSRYAMSWVRQAPGKGLEWVSSIISSSSETYYADSVKGRFTISRDNSKNTLYLQMNSLRAEDTAVYYCARLMGYGHYYPFDYWGQGTLVTVSS
VL: DIELTQPPSVSVAPGQTARISCSGDKIGSKYVYWYQQKPGQAPVLVIYDSNRPSGIPERFSGSNSGNTATLTISGTQAEDEADYYCASYDSIYSYWVFGGGTKLTVLG
notes: as for B1
B7: TP-2B9 Fab (Fab, V domains shown)
VH: QVQLQQSGPGLVKPSQTLSLTCAISGDSVSSNSAAWGWIRQSPGRGLEWLGMIYHRSKWYNDYAVSVKSRITINPDTSKNQFSLQLNSVTPEDTAVYYCARYSSIGHMDYWGQGTLVTVSS
VL: DIQMTQSPSSLSASVGDRVTITCRASQSIRSYLAWYQQKPGKAPKLLIYKASNLQSGVPSRFSGSGSGTDFTLTISSLQPEDFAVYYCHQYSDSPVTFGQGTKVEIKR
notes: as for B1
B8: TP-2E3 Fab (Fab, V domains shown)
VH: B7 VH with H55Y, Y102V, S103N, S104Q, I105Y, G106T, H107S, M108S
VL: DIALTQPASVSGSPGQSITISCTGTSSDIGGYNYVSWYQQHPGKAPKLMIYGVNYRPSGVSNRFSGSKSGNTASLTISGLQAEDEADYYCSSADKFTMSIVFGGGTKLTVLG
notes: as for B1
B9: TP-3F1 Fab (Fab, V domains shown)
VH: QVQLVQSGAEVKKPGESLKISCKGSGYSFTDYWIGWVRQMPGKGLEWMGIIQPSDSDTNYSPSFQGQVTISADKSISTAYLQWSSLKASDTAMYYCARFMWWGKYDSGFDVWGQGTLVTVSS
VL: DIELTQPPSVSVAPGQTARISCSGDNIGSYFASWYQQKPGQAPVLVIYDDSNRPSGIPERFSGSNSGNTATLTISGTQAEDEADYYCEGSNVFGGGTKLTVLG
notes: as for B1
B10: TP-2F9 Fab (Fab, V domains shown)
VH: QVQLVESGGGLVQPGGSLRLSCAASGFTFYKYAMHWVRQAPGKGLEWVSGIQYDGSYTYYADSVKGRFTISRDNSKNTLYLQMNSLRAEDTAVYYCARYYCKCVDLWGQGTLVTVSS
VL: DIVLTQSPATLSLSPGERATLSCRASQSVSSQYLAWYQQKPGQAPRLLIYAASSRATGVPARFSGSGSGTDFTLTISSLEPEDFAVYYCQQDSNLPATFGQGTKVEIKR
notes: as for B1
B11: TP-2B1 Fab (Fab, V domains shown)
VH: QVQLVESGGGLVQPGGSLRLSCAASGFTFSSYSMSWVRQASGKGLEWVSSIKGSGSNTYYADSVKGRFTISRDNSKNTLYLQMNSLRAEDTAVYYCARNGGLIDVWGQGTLVTVSS
VL: DIELTQPPSVSVAPGQTARISCSGDNLGNKYAHWYQQKPGQAPVLVIYYDNKRPSGIPERFSGSNSGNTATLTISGTQAEDEADYYCQSWTPGSNTMVFGGGTRLTVLG
notes: as for B1
B12: TP-4A9 Fab (Fab, V domains shown)
VH: QVQLVESGGGLVQPGGSLRLSCAASGFTFSSYGMSWVRQAPGKGLEWVSLISGVSSSTYYADSVKGRFTISRDNSKNTLYLQMNSLRAEDTAVYYCARSYLGYFDVWGQGTLVTVSS
VL: DIELTQPPSVSVAPGQTARISCSGDALGKYYASWYQQKPGQAPVLVIYGDNKRPSGIPERFSGSNSGNTATLTISGTQAEDEADYYCQSYTTRSLVFGGGTKLTVLG
notes: as for B1
B13: TP-2A10 Fab (Fab, V domains shown)
VH: QVQLVESGGGLVQPGGSLRLSCAASGFTFTSYSMNWVRQAPGKGLEWVSAISYTGSNTHYADSVKGRFTISRDNSKNTLYLQMNSLRAEDTAVYYCARAFLGYKESYFDIWGQGTLVTVSS
VL: DIELTQPPSVSVAPGQTARISCSGDKLGKKYVHWYQQKPGQAPVLVIYGDDKRPSGIPERFSGSNSGNTATLTISGTQAEDEADYYCQAWGSISRFVFGGGTKLTVLG
notes: as for B1
B14: TP-3A3 Fab (Fab, V domains shown)
VH: QVQLVESGGGLVQPGGSLRLSCAASGFTFNNNAISWVRQAPGKGLEWVSAINSSSSSTSYADSVKGRFTISRDNSKNTLYLQMNSLRAEDTAVYYCARGHHRGHSWASFIDYWGQGTLVTVSS
VL: DIELTQPPSVSVAPGQTARISCSGDNIGSKYVHWYQQKPGQAPVVVIYEDSDRPSGIPERFSGSNSGNTATLTISGTQAEDEADYYCQSWDKSEGYVFGGGTKLTVLG
notes: as for B1
B15: TP-2B8 Fab (Fab, V domains shown)
VH: QVQLVQSGAEVKKPGASVKVSCKASGYTFTGNSMHWVRQAPGQGLEWMGTIFPYDGTTKYAQKFQGRVTMTRDTSISTAYMELSSLRSEDTAVYYCARGVHSYFDYWGQGTLVTVSS
VL: DIELTQPPSVSVAPGQTARISCSGDNLRGYYASWYQQKPGQAPVLVIYEDNNRPSGIPERFSGSNSGNTATLTISGTQAEDEADYYCQSWDSPYVHVFGGGTKLTVLG
notes: as for B1

Each binder was assayed against T1, BSA (bovine, UniProt P02769 25-607) (assay: ELISA).
T1 construct: also called bovine serum albumin
T1 sequence (P02769 25-607 limits assumed): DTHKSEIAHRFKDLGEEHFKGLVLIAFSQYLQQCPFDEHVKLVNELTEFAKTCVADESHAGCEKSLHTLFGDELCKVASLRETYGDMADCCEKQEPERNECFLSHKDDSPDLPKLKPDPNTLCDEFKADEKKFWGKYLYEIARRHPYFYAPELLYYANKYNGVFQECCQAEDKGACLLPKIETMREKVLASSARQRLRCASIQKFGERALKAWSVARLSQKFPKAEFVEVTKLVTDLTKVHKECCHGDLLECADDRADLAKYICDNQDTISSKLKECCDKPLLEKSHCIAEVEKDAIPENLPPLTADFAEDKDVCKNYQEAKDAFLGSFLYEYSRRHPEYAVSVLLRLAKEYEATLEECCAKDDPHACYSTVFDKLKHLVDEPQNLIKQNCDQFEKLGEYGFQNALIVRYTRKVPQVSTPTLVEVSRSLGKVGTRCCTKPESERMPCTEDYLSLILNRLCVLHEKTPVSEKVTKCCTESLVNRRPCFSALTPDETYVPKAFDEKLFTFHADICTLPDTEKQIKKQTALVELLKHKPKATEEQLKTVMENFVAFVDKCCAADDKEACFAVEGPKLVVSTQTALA
Procedure: (§1) To select antibody clones that bind to human TFPI, Fab genes of the phage clones from the second and third round of panning were subcloned into a bacterial expression vector and expressed in E. coli strain TG1. The bacterial lysate was added to the wells of the human TFPI-coated Maxisorp plates. After washing, HRP-conjugated goat anti-human Fab was used as a detection antibody and the plates were developed by adding AmplexRed (Invitrogen) with hydrogen peroxide. A signal of at least five-fold higher than the background was considered as positive. The cross reactivity of the anti-human TFPI antibodies to mouse TFPI was determined by a similar mouse TFPI-binding ELISA. The plates were coated with mouse TFPI (R&D System), BSA and lysozyme. The later two antigens were used as negative controls.

Row | binding result | Binder
1 | no binding | B1
2 | no binding | B2
3 | no binding | B3
4 | no binding | B4
5 | no binding | B5
6 | no binding | B6
7 | no binding | B7
8 | no binding | B8
9 | no binding | B9
10 | no binding | B10
11 | no binding | B11
12 | no binding | B12
13 | no binding | B13
14 | no binding | B14
15 | no binding | B15

These binders were tested against T2, human tissue factor pathway inhibitor (TFPI) (human, UniProt P10646 29-304, limits assumed) (assay: ELISA, Fab on coated TFPI).
T2 construct: Bought protein; also called human TFPI; hTFPI
T2 sequence (looked up): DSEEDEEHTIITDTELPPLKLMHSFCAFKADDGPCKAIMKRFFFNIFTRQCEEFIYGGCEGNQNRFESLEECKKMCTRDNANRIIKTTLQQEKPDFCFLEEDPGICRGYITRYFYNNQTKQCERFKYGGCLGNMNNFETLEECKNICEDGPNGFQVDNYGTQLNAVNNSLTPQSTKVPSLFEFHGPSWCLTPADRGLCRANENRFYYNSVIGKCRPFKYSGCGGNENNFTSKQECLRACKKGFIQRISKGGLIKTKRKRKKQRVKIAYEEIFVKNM
Procedure: as §1
(§2) Purified Fab antibodies were used to determine EC₅₀ of anti-TFPI antibodies to human or mouse TFPI. EC₅₀ was assessed in an ELISA, similarly as described above. The results were analyzed using SoftMax. The binding affinity of anti-TFPI antibodies was determined in a Biacore assay. Briefly, the antigen, either human or mouse TFPI, was immobilized on the CM5-chips using the amine coupling kit (GE HealthCare) according to the instructions of the manufacturer. The amount of immobilized TFPI was adjusted to the mass of the antigen to give approximate 300 RU. The antibody Fabs were analyzed in mobile phase and at least five different concentrations (0.1, 0.4, 1.6, 6.4 and 25 nM) of the purified antibodies were used in the Biacore assay. The kinetics and binding affinity were calculated using Biacore T100 Evaluation software.

Row | EC50 [nM] | Binder
16 | 0.17 | B12

Each binder was assayed against T2, human tissue factor pathway inhibitor … (assay: ELISA, Fab lysate on coated human TFPI).
Procedure: as §1

Row | binding result | Binder
17 | binds | B1
18 | binds | B2
19 | binds | B3
20 | binds | B4
21 | binds | B5
22 | binds | B6
23 | binds | B7
24 | binds | B8
25 | binds | B10
26 | binds | B11
27 | binds | B13
28 | binds | B14
29 | binds | B15

Each binder was assayed against T2, human tissue factor pathway inhibitor … (assay: Biacore, TFPI on CM5 chip, Fab in mobile phase).
Procedure: as §2

Row | Kd [nM] | Binder
30 | 7.6 | B12
